The target of experiment [1] is T1, mouse Fz8 (mouse) (UniProt Q61091).
T1 sequence (looked up): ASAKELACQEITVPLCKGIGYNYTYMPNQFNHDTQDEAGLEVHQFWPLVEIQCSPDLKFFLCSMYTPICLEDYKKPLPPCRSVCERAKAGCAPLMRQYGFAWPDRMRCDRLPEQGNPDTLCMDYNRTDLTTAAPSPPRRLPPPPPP
In words: FIG. 12A: L-Wnt3A incubated with Fz8 for 12 h RT, ultracentrifugation, western blot. For orientation: Immunoblotting shows a protein as a band on a membrane.

Experiment [2] addresses T1, mouse Fz8 (mouse). In words: FIG. 11A: preformed L-Wnt3A incubated with Fz8 6 h RT, ultracentrifugation, western blot.
Experiment [3] addresses T1, mouse Fz8 (mouse). In words: FIG. 12A: preformed L-Wnt3A incubated with Fz8 (longer time course), ultracentrifugation, immunoblot.
Experiment [4] addresses L-Wnt3A (Wnt3A reconstituted into liposomes) (human) (UniProt P56704). Description: FIG. 11A: preformed L-Wnt3A incubated with Fz8 6 h RT, ultracentrifugation, immunoblot.
Experiment [5] shares this target. Description: FIG. 12A: preformed L-Wnt3A incubated with Fz8 (longer time course), ultracentrifugation, immunoblot.

Here are results for 2 substances from patent US20200270570A1.

Chain of UniProt P56704 (P56704 19-352 limits assumed): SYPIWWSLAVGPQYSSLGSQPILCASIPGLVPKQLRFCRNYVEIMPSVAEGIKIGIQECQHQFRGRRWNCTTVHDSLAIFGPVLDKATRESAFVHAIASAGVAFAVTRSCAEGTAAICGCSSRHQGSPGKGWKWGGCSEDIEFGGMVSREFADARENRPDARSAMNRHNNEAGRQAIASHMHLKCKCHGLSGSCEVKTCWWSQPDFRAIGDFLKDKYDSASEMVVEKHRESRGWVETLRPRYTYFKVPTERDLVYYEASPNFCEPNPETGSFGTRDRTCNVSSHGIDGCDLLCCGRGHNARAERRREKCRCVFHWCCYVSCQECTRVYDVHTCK

On to “L-Wnt3A (Wnt3A reconstituted into liposomes) (from UniProt P56704 19-352)”, for which the percent of Wnt3A in Fz8 rich supernatant with mouse Fz8 (mouse) [1] turned out to be 11%. For the same substance, the figures for the percent of Wnt3A in liposomal pellet (not with Fz8) with mouse Fz8 (mouse) [2] and with mouse Fz8 (mouse) [3] were 100% and 88.7%, respectively.
Regarding “mouse Fz8 (from UniProt Q61091 28-173) (receptor)”, the results for the percent of Fz8 in supernatant (not liposome-associated) in experiment [4] and in experiment [5] were 98.6% and 94.5%, respectively.
